In publication PMC8862428, “Modeling the stimulation by glutathione of the steady state kinetics of an adenosine triphosphate binding cassette transporter” (Protein Science : A Publication of the Protein Society, 2021):

Substrate: Nc1ncnc2c1ncn2[C@@H]1O[C@H](COP(=O)(O)OP(=O)(O)OP(=O)(O)O)[C@@H](O)[C@H]1O
Assay: molybdate phosphate-release ATPase assay, global fit to nonessential activator model
Type: biochemical, Novosphingobium aromaticivorans
Conditions: nanodiscs (MSP1D1/POPC), basal ATPase, constant for transporter without GSSG, Mg complex of ATP, 100 mM NaCl, 20 mM Tris pH 7.5, 37 °C
Text: molybdate phosphate-release ATPase assay, global fit to nonessential activator model on NaAtm1

B1: NaAtm1 (Novosphingobium aromaticivorans DSM 12444) (protein)
chain: MPPETATNPKDARHDGWQTLKRFLPYLWPADNAVLRRRVVGAILMVLLGKATTLALPFAYKKAVDAMTLGGGAQPALTVALAFVLAYALGRFSGVLFDNLRNIVFERVGQDATRHLAENVFARLHKLSLRFHLARRTGEVTKVIERGTKSIDTMLYFLLFNIAPTVIELTAVIVIFWLNFGLGLVTATILAVIAYVWTTRTITEWRTHLREKMNRLDGQALARAVDSLLNYETVKYFGAESREEARYASAARAYADAAVKSENSLGLLNIAQALIVNLLMAGAMAWTVYGWSQGKLTVGDLVFVNTYLTQLFRPLDMLGMVYRTIRQGLIDMAEMFRLIDTHIEVADVPNAPALVVNRPSVTFDNVVFGYDRDREILHGLSFEVAAGSRVAIVGPSGAGKSTIARLLFRFYDPWEGRILIDGQDIAHVTQTSLRAALGIVPQDSVLFNDTIGYNIAYGRDGASRAEVDAAAKGAAIADFIARLPQGYDTEVGERGLKLSGGEKQRVAIARTLVKNPPILLFDEATSALDTRTEQDILSTMRAVASHRTTISIAHRLSTIADSDTILVLDQGRLAEQGSHLDLLRRDGLYAEMWARQAAESAEVSEAAE
notes: His-tag (NiNTA) purified from E. coli BL21-gold (DE3); 135 kDa transporter (homodimer); in DDM/C12E8 detergent, MSP1D1/POPC nanodiscs or proteoliposomes
  Km: 1410 ± 80 µM
  kcat: 0.531 ± 0.0173 s⁻¹
